Reference: US20190077844A1 (published 2019)
Numbering of substitutions follows the chain as printed.

B1: ADX_6077_F02 DG→SG mutant, alkylated (designed binder)
chain: VSDVPRDLEVVAATPTSLLISWSDDYHAHRYYRITYGETGGNSPVQEFTVPGEHVTATISGLKPGVDYTITVYAVTYSGEKAATDWSISINYRTPC
modifications: C-terminal cysteine alkylated
notes: also called P1-055668
B2: ADX_6077_F02 DG→DA mutant, alkylated (designed binder)
chain: GVSDVPRDLEVVAATPTSLLISWSDDYHAHRYYRITYGETGGNSPVQEFTVPGEHVTATISGLKPGVDYTITVYAVTYDAEKAATDWSISINYRTPC
modifications: C-terminal cysteine alkylated
notes: also called P1-055660
B3: ADX_6077_F02 DG→DS mutant, alkylated (designed binder)
chain: B2 chain with A80S
modifications: C-terminal cysteine alkylated
notes: also called P1-055667
B4: ADX_6077_F02 DG→EG mutant, alkylated (designed binder)
chain: B2 chain with D79E, A80G
modifications: C-terminal cysteine alkylated
notes: also called P1-055673
B5: ADX_6077_F02 DG→AG mutant, alkylated (designed binder)
chain: B2 chain with D79A, A80G
modifications: C-terminal cysteine alkylated
notes: also called P1-055669
B6: ADX_6077_F02 DG→DL mutant, alkylated (designed binder)
chain: B2 chain with A80L
modifications: C-terminal cysteine alkylated
notes: also called P1-055671
B7: ADX_6077_F02 DG→GG mutant, alkylated (designed binder)
chain: B2 chain with D79G, A80G
modifications: C-terminal cysteine alkylated
notes: also called P1-055670
B8: ADX_6077_F02 DG→DV mutant, alkylated (designed binder)
chain: B2 chain with A80V
modifications: C-terminal cysteine alkylated
notes: also called P1-055672

biological target: T1, Human glypican-3 on cells (Huh7, Hep3B, H446, HepG2; Hep3B xenograft tissue) (human, UniProt P51654 25-554); assay: flow cytometry on Huh7 cells, EC50 ratio to parent Adnectin
T1 construct: Endogenous GPC3 of human tumor cell lines; also called huGPC3 on cells; GPC3 receptor
Procedure: The binding of DG variants to huGPC3 in DG GPC3 AdxDCs mutants were evaluated by flow cytometry for binding to Huh7 carcinoma cells grown in DMEM media with 10% FBS. Cells were harvested using Versene, an EDTA cell dissociation solution from Lonza, Cat. #17-711E. Tumor cells (1E5 cells/reaction) were suspended in FACS buffer (PBS, 1% BSA, 0.05% Na Azide) and mixed with a serial dilution of AdxDC for one hour on ice. Cells were washed three times with FACS buffer, and bound AdxDC was detected with an in house anti-scaffold monoclonal Ab and PE-conjugated Antibody from (RnD Systems), cat#NL007, and read on a flow cytometer.

T1 sequence (P51654 25-554 limits assumed): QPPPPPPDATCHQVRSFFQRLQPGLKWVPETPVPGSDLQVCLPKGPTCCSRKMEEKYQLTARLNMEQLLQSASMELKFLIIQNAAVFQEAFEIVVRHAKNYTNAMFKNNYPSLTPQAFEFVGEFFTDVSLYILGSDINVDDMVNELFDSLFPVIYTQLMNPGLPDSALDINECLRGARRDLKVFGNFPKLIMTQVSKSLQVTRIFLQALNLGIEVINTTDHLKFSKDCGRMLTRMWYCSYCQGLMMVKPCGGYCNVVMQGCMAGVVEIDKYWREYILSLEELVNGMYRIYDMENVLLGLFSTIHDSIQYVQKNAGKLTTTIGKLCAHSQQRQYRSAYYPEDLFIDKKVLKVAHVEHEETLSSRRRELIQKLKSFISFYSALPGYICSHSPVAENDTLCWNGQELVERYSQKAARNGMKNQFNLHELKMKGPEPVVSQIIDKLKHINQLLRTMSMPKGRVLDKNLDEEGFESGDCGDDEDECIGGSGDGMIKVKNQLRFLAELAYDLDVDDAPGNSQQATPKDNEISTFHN

| huGPC3 on cells EC50 (mutant/parent) [ratio mutant/parent] | Binder |
| --- | --- |
| 1.1 | B1 |
| 1.3 | B2 |
| 1.4 | B3 |
| 1.6 | B4 |
| 1.1 | B5 |
| 1.7 | B6 |

biological target: T2, Recombinant murine glypican-3 (aa 25-557) (R&D Systems) (murine, UniProt Q8CFZ4 25-557); assay: SPR 1-point off-rate, ratio to parental ADX_6077_F02
T2 construct: also called muGPC3; murine GPC3
Procedure: (§1) Surface plasmon resonance (SPR) was performed to calculate off-rates (kd) and binding affinities of α-GPC3 adnectins and tubulysin-conjugated AdxDCs using a Biacore T100 instrument (GE Healthcare). […] SPR experiments were conducted at 37° C. using HBS-P+(10 mM HEPES, 150 mM NaCl, 0.05% (v/v) Surfactant P20, pH 7.4) running buffer (GE Healthcare). […] For off-rate measurements, single 200 nM adnectin/AdxDC concentrations were injected using identical conditions. One 30s injection of 10 mM glycine pH 1.7 was used to remove bound adnectin and regenerate the GPC₃ surfaces between assay cycles.
(§2) Rate constants kₐ (kₒₙ) and kd (koff) were derived from reference-subtracted sensorgrams fit to a 1:1 binding model in Biacore T100 Evaluation Software v2.0.4 (GE Healthcare). The affinity constant, KD was calculated from the ratio of rate constants kd/kₐ.
(§3) One-hundred to one-hundred-fifty milligrams of each of the eight mutants was made, purified and alkylated as previously above. Three to five milligrams of each of eight alkylated variants at 1-3 mg/mL were subjected to SEC, DSC, GPC3 binding (SPR 1 pt off-rates), MS and HIC.

T2 sequence (Q8CFZ4 25-557 limits assumed, form in doubt): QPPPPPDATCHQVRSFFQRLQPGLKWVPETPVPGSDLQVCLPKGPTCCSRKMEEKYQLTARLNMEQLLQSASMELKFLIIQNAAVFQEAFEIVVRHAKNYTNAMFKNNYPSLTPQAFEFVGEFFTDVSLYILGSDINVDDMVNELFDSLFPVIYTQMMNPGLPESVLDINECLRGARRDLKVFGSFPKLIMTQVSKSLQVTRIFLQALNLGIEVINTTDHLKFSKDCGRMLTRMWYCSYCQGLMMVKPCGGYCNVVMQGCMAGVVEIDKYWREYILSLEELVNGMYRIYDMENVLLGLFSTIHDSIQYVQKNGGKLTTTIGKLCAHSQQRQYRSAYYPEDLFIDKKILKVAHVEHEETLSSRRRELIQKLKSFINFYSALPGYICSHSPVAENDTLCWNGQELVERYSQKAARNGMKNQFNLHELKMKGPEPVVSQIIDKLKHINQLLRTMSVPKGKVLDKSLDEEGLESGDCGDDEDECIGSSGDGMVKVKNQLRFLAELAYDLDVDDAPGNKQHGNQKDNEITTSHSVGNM

| muGPC3 koff (mut/par) [ratio mutant/parent] | Binder |
| --- | --- |
| 4.8 | B1 |
| 3.7 | B2 |
| 3.3 | B3 |
| 5.1 | B4 |
| 5.5 | B5 |
| 3.1 | B6 |
| 12 | B7 |
| 7 | B8 |

biological target: T3, Recombinant human glypican-3 (aa 1-559), His-tagged (R&D Systems) (human, UniProt P51654 25-559); assay: as above
T3 construct: also called huGPC3; human GPC3
Procedure: as §1, §2, §3

T3 sequence (P51654 other isoform, or with tags, fused parts or gaps): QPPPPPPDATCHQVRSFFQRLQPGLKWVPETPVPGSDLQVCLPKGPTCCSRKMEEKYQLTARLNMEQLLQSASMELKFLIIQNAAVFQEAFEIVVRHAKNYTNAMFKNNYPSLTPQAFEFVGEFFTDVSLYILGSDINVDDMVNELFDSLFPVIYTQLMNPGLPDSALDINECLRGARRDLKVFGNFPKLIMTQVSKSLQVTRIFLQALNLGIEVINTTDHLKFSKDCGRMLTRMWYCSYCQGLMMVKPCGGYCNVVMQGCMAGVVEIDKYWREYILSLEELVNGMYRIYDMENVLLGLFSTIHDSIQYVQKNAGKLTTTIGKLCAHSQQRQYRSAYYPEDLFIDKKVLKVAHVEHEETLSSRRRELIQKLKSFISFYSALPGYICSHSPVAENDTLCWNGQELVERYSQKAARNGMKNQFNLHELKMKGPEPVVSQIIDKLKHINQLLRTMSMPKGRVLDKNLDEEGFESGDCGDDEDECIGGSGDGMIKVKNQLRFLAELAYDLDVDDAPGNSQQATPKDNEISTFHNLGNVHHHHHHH

| huGPC3 koff (mut/par) [ratio mutant/parent] | Binder |
| --- | --- |
| 5.2 | B1 |
| 3.9 | B2 |
| 3.5 | B3 |
| 5.4 | B4 |
| 5.9 | B5 |
| 3.6 | B6 |
| 14 | B7 |
| 7.9 | B8 |
